Results: FireProtDB (doi:10.1074/jbc.m005861200)

Details: pH 5, DSC, Unknown, reversible: yes, whole UniProt chain shown; for denaturant midpoint (higher = more stable): 25 °C, GdnHCl; for Tm / heat capacity change of unfolding / unfolding enthalpy (calorimetric): Thermal
[1] = Pseudomonas aeruginosa (strain ATCC 15692 / DSM 22644 / CIP 104116 / JCM 14847 / LMG 12228 / 1C / PRS 101 / PAO1)
[2] = Pseudomonas aeruginosa (strain ATCC 15692 / DSM 22644 / CIP 104116 / JCM 14847 / LMG 12228 / 1C / PRS 101 / PAO1), 47.3 °C
[3] = Hydrogenobacter thermophilus (strain DSM 6534 / IAM 12695 / TK-6)

B1: Cytochrome c-551 wild type, P00099 (protein)
chain: MKPYALLSLLATGTLLAQGAWAEDPEVLFKNKGCVACHAIDTKMVGPAYKDVAAKFAGQAGAEAELAQRIKNGSQGVWGPIPMPPNAVSDDEAQTLAKWVLSQK
denaturant midpoint (higher = more stable) [1]: 2.16 M
Tm [2]: 47.3 °C
heat capacity change of unfolding [2]: 1.07 kcal/mol/K
Tm [1]: 47.3 °C
heat capacity change of unfolding [1]: 0.72 kcal/mol/K
unfolding enthalpy (calorimetric) [1]: 37.7 kcal/mol

B2: Cytochrome c-552 wild type, P15452 (protein)
chain: MKKFLLVAVVGLAGITFANEQLAKQKGCMACHDLKAKKVGPAYADVAKKYAGRKDAVDYLAGKIKKGGSGVWGSVPMPPQNVTDAEAKQLAQWILSIK
denaturant midpoint (higher = more stable) [3]: 4.47 M
Tm [3]: 87.5 °C
heat capacity change of unfolding [3]: 0.9 kcal/mol/K
unfolding enthalpy (calorimetric) [3]: 36.7 kcal/mol
